Source: paper PMC10349951
Several values for one entry are separate records, joined by “and”; a condition that tells them apart may be missing. Equal values may be shown once.

Target: Recombinant Halo-tagged Synaptophysin labeled with Alexa488 (mouse) (UniProt Q62277)
Assay: single-molecule TIRF step photobleaching

In the case of “Recombinant Halo-tagged Synaptophysin labeled with Alexa488 (from UniProt Q62277 1-314) (natural protein)”, the stoichiometry N is reported as 3 copies and 5 copies.
